{"source": "patent US20230346897A1", "biological_target": "human amyloid Aβ40 (human) (UniProt P05067)"}
{"substance": "human plasminogen purified from the plasma of human donors (enzyme)", "values": [{"measurement": "amount of Aβ40 left (Tricine-SDS-PAGE, quantitative scanning; solvent control defined as 100%) after 3 h at 37 °C in rabbit cerebrospinal fluid", "result": 74.8, "unit": "%"}]}
